The values below come from US20230060388A1 (SHANGHAI HENLIUS BIOTECH, published 2023).

Changes are numbered by the printed parent chain. Where only a bound is given, the exact number is not on record here.

Sequences and labels used below:
T1: recombinant human TIGIT extracellular domain (ECD) (human, UniProt Q495A1 22-138)
T1 construct: also called h-TIGIT ECD; recombinant human TIGIT ECD
T1 sequence: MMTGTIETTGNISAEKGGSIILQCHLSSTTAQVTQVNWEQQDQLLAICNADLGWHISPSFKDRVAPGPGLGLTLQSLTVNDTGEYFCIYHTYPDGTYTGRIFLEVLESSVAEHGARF

B1: 4H9 VHH (VHH)
VHH: QVQLVESGGGAVQAGGSLRLSCTASGPIARSRSTGMGWFRQGPGKERESVAAISSDGRFTYYAASVKGRFTISKDNAKSAAFLQMNSLKPEDTAVYYCAARDSGSGYYSRAQWYDYWGQGTQVTVSS
notes: VHH in E. coli supernatant
B2: 15A5 VHH (VHH)
VHH: QVQLVESGGGLVQAGGSLRLSCAASERTFSSFAMGWFRQAPGKEREVVAAIDPSGRYIYYKDSVKGRFTMSRDNAKSTVYLQMNSLKPDDTARYYCAARIRGEGYYTRSSFYHYWGQGTQVTVSS
notes: VHH in E. coli supernatant
B3: 3G6 VHH (VHH)
VHH: QVQLVESGGGLVQAGGSLSLSCAASGSIFGISVMGWYRQAPGEQRDLVATLTRAGLTTYGDSVKGRFSISRDSAKNTVYLQMNNLKPEDTAVYYCHANIMESAASTFGRYWGQGTQVTVSS
notes: VHH in E. coli supernatant
B4: 2B10 VHH (VHH)
VHH: QVKLEESGGGLVQTGDSLRLSCAASSRIFRRYAMGWFRQAPGKEREFVAAITWSGASTTYTDSVKGRFTISRDSAENTTYLQMTSLRPEDTAVYYCAADPWGSVIVGTAEYEYWGQGTLVTVSS
notes: VHH in E. coli supernatant
B5: 1C12 VHH (VHH)
VHH: QVQLVESGGGLVQTGDSLRLSCAASSRIFSRYGMGWFRQAPGKEREFVAAISWNGASTTYTDSVKGRFTISRDSAENTTYLQINSLRPEDTAVYYCAADPWGAVKLGTAEYEYWGQGTQVTVSS
notes: VHH in E. coli supernatant
B6: 3F10 VHH (VHH)
VHH: QVQLVESGGGLVQAGGSLRLSCASSEHTFSNFPMGWFRQAPGKERNVVAAIDSSGRLTYYADSVKGRFTISKDNAKSTVYLQMNSLKSEDTARYYCAARTGGVGYYSRSSFYNYWGQGTLVTVSS
notes: VHH in E. coli supernatant
B7: 3G7 VHH (VHH)
VHH: QVQLVESGGGLVQAGDSLRLSCEASGRTLSTYTMGWFRRAPGKEREFVGLAWPSPSTYVVDSVKGRFTISRDNAKNTIYLQMNSLKPEDTAIYYCAADYKSLTQSWLNAALDYWGQGTQVTVSS
notes: VHH in E. coli supernatant
B8: 13H11 VHH (VHH)
VHH: QVQLVESGGGLVQAGGSLRLSCAASGLTFSMYAMGWFRQGPGKERESVAAISSDGRFTYYAASVKGRFTISKDNAKSAAFLQMNSLKPEDTAVYYCAARDSGSGYYSRAQWYDYWGQGTQVTVSS
notes: VHH in E. coli supernatant
B9: 2B7 VHH (VHH)
VHH: B8 VHH with S21A, L27R, M31S, A33P
notes: VHH in E. coli supernatant
B10: 1G1 VHH (VHH)
VHH: B8 VHH with G16D, A23V, L27P, T28S, M31S, A33P, Q120L
notes: VHH in E. coli supernatant

One assay concerns the target T1, recombinant human TIGIT extracellular …. The assay can be described thus: ELISA, VHH supernatant on h-TIGIT ECD coated plates. On the procedure: The VHH antibody genes were amplified by PCR under protocols know in the art, purified by DNA agarose gel, constructed into a phagemid vector pADL-23c (Antibody Design Labs) and transformed to TG1 electrocompetent cells (from Lucigen). Transformed TG1 cells were cultured in Y2T medium. […] Phages in supernatants of culture were harvested by centrifugation, and panning of binders to human-TIGIT (h-TIGIT) or cynomolgus-TIGIT (cyno-TIGIT) antigen was performed using streptavidin-coupled Dynabeads coated with biotinylated h-TIGIT or cyno-TIGIT ECD. After 3 rounds of panning, binders of h-TIGIT or cyno-TIGIT were eluted, which were used to infect SS320 cells. Colonies of SS320 cells were picked and cultured in Y2T medium, and IPTG was added for secretion of VHH antibodies. Supernatants with VHH antibodies were screened by ELISA assays using h-TIGIT ECD coated plates. Positive h-TIGIT binders were picked for sequencing. 29 clones with different sequences were selected. Binding ability of VHH antibodies on cyno-TIGIT was also examined by ELISA. The top 21 binders and their CDRs and VHs are shown in the Sequence Table (SEQ ID NOS: 1-84).
In general terms: An ELISA detects its analyte on a solid surface through an enzyme-linked reagent.
Turning to B1, the binding result was “binds”.

A further assay has the same target. The assay is described as follows: blocking ELISA, competitor PVR. On the procedure:
The effects of VHH antibody clones on blocking Poliovirus Receptor (PVR, a.k.a. CD155) binding to TIGIT were also determined using blocking ELISA assay.
On to B2, for which the “inhibition of PVR binding to h-TIGIT” value is > 90%. Still for that read-out and setting: with B3 the figure was > 90%; with B4, > 90%; with B5, > 90%. In the case of B6, the “inhibition of PVR binding to h-TIGIT” value was > 90%. Regarding B7, the “inhibition of PVR binding to h-TIGIT” value was > 90%. Still for that read-out and setting: with B8 the figure was > 90%. On the same count and under the same terms, with B9 the figure was > 90%; with B10, > 90%.
